Measurements reported in paper PMC4409310, “Substrate Recognition and Modification by the Nosiheptide Resistance Methyltransferase”.

Tests used:
His-NHR = His-NHR (Streptomyces actuosus, UniProt P52391 1-274); assay: fluorescence anisotropy; 5 mM Mg2+; Anisotropy: 25 mM HEPES-KOH pH 7.5, 25 mM NH4Cl, 5 mM MgCl2, 5 mM DTT, 2.5 uM RNA, 0-8 uM NHR, temperature not stated; EMSA: 25 mM HEPES-KOH pH 8.0, 25 mM NH4Cl, 5 mM MgCl2, 5 mM DTT, 4 C, 1 h, 6-10 uM RNA; conditions: protein: recombinant, tags: N-terminal His6 (pET-28a), chain copies: 2
[1] = target: HA-His-NHR-R135A (His-NHR-M) (Streptomyces actuosus, UniProt P52391 1-274, R135A); assay: EMSA; 5 mM Mg2+; R135A homodimer, less efficient than heterodimer; Anisotropy: 25 mM HEPES-KOH pH 7.5, 25 mM NH4Cl, 5 mM MgCl2, 5 mM DTT, 2.5 uM RNA, 0-8 uM NHR, temperature not stated; EMSA: 25 mM HEPES-KOH pH 8.0, 25 mM NH4Cl, 5 mM MgCl2, 5 mM DTT, 4 C, 1 h, 6-10 uM RNA; conditions: protein: recombinant; tags: HA, N-terminal His6; chain copies: 2; label: 3' fluorescein (anisotropy); none (EMSA, SYBR Gold); hairpin
[2] = target: HA-His-NHR-R135A subunit of heterodimer;Flag-Trx-NHR subunit of heterodimer (Streptomyces actuosus;Streptomyces …, UniProt P52391;P52391 1-274;1-274, R135A|); assay: EMSA; 5 mM Mg2+; WT/R135A heterodimer, more efficient than R135A homodimer; Anisotropy: 25 mM HEPES-KOH pH 7.5, 25 mM NH4Cl, 5 mM MgCl2, 5 mM DTT, 2.5 uM RNA, 0-8 uM NHR, temperature not stated; EMSA: 25 mM HEPES-KOH pH 8.0, 25 mM NH4Cl, 5 mM MgCl2, 5 mM DTT, 4 C, 1 h, 6-10 uM RNA; conditions: protein: recombinant;recombinant, tags: HA, N-terminal His6;Flag, thioredoxin, copies: 1;1, label: 3' fluorescein (anisotropy), none (EMSA, SYBR Gold), hairpin
[3] = label: 3' fluorescein, folded single strand

Binder | Kd (His-NHR; label: 3' fluorescein, hairpin) | Kd (His-NHR; [3]) | other results
GGAUGUUGGCUUAGAAGCAGCCAUCAUUU (structured_RNA) [29 nt RNA wt A1067] | – | – | Kd (His-NHR; label: 3' fluorescein (anisotropy), none (EMSA, SYBR Gold), hairpin): 370 ± 30 nM; binding result [1]: binds; binding result [2]: binds
GGAUGUUGGCUUGGAAGCAGCCAUCAUUU (structured_RNA) [29 nt RNA A1067G] | 370 ± 30 nM | – | –
GGAUGUUGGCUUCGAAGCAGCCAUCAUUU (structured_RNA) [29 nt RNA A1067C] | 460 ± 40 nM | – | –
GGAUGUUGGCUUUGAAGCAGCCAUCAUUU (structured_RNA) [29 nt RNA A1067U] | 630 ± 80 nM | – | –
58 nt RNA A1067G (structured_RNA) RNA: GGCCAGGAUGUUGGCUUGGAAGCAGCCAUCAUUUAAAGAAAGCGUAAUAGCUCACUGGCU | – | 770 ± 20 nM | –
58 nt RNA A1067C (structured_RNA) RNA: GGCCAGGAUGUUGGCUUCGAAGCAGCCAUCAUUUAAAGAAAGCGUAAUAGCUCACUGGCU | – | 800 ± 20 nM | –
58 nt RNA A1067U (structured_RNA) RNA: GGCCAGGAUGUUGGCUUUGAAGCAGCCAUCAUUUAAAGAAAGCGUAAUAGCUCACUGGCU | – | 910 ± 20 nM | –
